Assay results taken from PMC13631358.

Biological target: tapasin-ERp57 heterodimer (ER-lumenal domain of tapasin, full-length ERp57 Cys36Ala), disulfide-linked (human) (UniProt P30101)
Test: ITC; Crt or Crt^Δacidic (titrant, 500 µM) into tapasin-ERp57 heterodimer (analyte, 19 µM; no PaSta1 Fab named); 25 °C; 50 mM HEPES-NaOH pH 7.4, 150 mM NaCl, 1 mM CaCl2

calreticulin (amino acids 18-417) (from UniProt P27797 18-417) (natural protein)
Kd: 4.2 µM
